Assay results published in US6200577A, “Anti-herpesviral agents and assays therefor” (priority 1996, dated 2001).
Entries after “also recorded” stand apart in the source; their conditions may differ.

Tests used:
[1] = Solubility of synthetic peptides in buffer; assay type: physicochemical; conditions: for Solubility following purification: HPLC-purified peptides; for Solubility: peptides dissolved in 20 mM Tris-HCl, pH 8.0, 250 mM NaCl, unpurified preparations
Protocol: Synthesis and Purification of Oligopeptides. Peptides were synthesised by continuous flow Fmoc chemistry (Atherton and Sheppard, 1989; McLean et al., 1991) and, where stated in the text, were purified by preparative reverse-phase HPLC (Owsianka et al., 1993). The Mr values of peptides were determined by fast atom bombardment mass spectrometry (M-Scan) and corresponded to the predicted values. Peptides were dissolved in 20 mM Tris-HCl, pH 8.0, 250 mM NaCl and centrifuged at 11,500 g for 1 minute prior to use. […] Precipitates were removed by centrifugation before use.

[2] = molecular target: T1, VP16/VP22trunc interaction (Human herpesvirus 1, UniProt P06492); experiment: Co-purification of VP16 with VP22trunc on Ni-NTA resin in presence of peptides; assay type: binding, HSV-1; conditions: for Co-elution of VP16 with VP22trunc from Ni-NTA resin after incubation with peptide: crude peptide at 2 mg/ml (about 1 mM), equal volume mixed with partially purified VP16 extract before VP22trunc; for Inhibition of VP16 co-elution with VP22trunc, peptides purified to homogeneity: peptides purified by reverse phase HPLC, data not shown
T1 construct: Plasmid pETVP16 was used to express full-length VP16 under the control of the T7 RNA polymerase promoter; made in house; host or cells: E. coli BL21(DE3)
T1 sequence (P06492 whole entry): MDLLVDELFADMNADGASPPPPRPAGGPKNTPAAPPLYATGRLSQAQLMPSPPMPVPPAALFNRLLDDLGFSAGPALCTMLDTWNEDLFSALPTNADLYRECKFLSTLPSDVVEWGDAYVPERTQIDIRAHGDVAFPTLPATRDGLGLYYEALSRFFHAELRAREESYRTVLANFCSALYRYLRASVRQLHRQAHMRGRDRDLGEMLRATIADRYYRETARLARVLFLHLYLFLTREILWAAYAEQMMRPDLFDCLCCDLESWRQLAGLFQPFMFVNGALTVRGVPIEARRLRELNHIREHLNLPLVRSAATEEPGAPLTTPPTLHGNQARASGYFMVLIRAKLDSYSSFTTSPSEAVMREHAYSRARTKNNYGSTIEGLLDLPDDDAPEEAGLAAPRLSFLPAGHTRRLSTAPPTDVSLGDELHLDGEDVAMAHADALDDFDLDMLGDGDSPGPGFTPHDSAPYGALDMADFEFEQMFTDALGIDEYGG
Protocol: FIG. 4 Co-elution of VP16 with VP22trunc from Ni-NTA resin. Partially purified extract containing VP16 was incubated in the absence of (lane 14) or presence of […] of VP22trunc (lanes 3 to 13). In lanes 3 to 12, an equal volume of the individual peptides at 2 mg/ml was added to the extract prior to VP22trunc. Peptides added to each reaction were as follows: lane 3, peptide A; lane 4, peptide B; lane 5, peptide C; lane 6, peptide D; lane 7, peptide E; lane 8, peptide F; lane 9, peptide G; lane 10, peptide H; lane 11, peptide I; lane 12, peptide J; lane 13, no peptide. Lanes 3 to 14 show the polypeptides eluted from Ni-NTA resin. Other samples were as follows: lane 1, partially purified VP16 extract, lane 2, purified VP16; lane 15, purified VP22trunc. Samples were electrophoresed on a 12% polyacrylamide gel and the apparent molecular weights of VP16 (65 KDa) and VP22trunc (16 KDa) are shown.
Co-purification of VP16 with VP22trunc on Ni-NTA Resin. Purified VP22trunc and a partially purified extract containing VP16, both in 20 mM Tris-HCl, pH8.0, 250 mM NaCl, were mixed at 4° C. for 15 to 30 minutes on a rotator. 50 μl of equilibrated Ni-NTA resin was added to each mixture and incubation was continued at 40C for a further 15 to 30 minutes. Resin was pelleted at 800 g for 1 minute and the supernatant (non-bound fraction) was removed. Resin was washed sequentially with 0.5 ml of 20 mM Tris-HCl, pH 8.0, 250 mM NaCl, 5 mM imidazole (twice) and 0.5 ml of 20 mM Tris-HCl, pH 8.0, 250 mM NaCl, 60 mM imidazole (four times). Bound protein was eluted by addition of 50 μl of boiling mix (160 mM Tris-HCl, pH 6.7, 2% SDS, 700 mM β-mercaptoethanol, 10% glycerol, 0.002% bromophenol blue) followed by heating to 100° C. for 5 minutes. For peptide studies, peptides were dissolved in 20 mM Tris-HCl, pH8.0, 250 mM NaCl at a concentration of 2 mg/ml. Incubation of peptides with partially purified VP16 extracts was performed at ambient temperature for 2 hours prior to the addition of VP22trunc. Samples were electrophoresed on denaturing polyacrylamide gels.
Results presented in Section 2(i) had shown that VP16 co-elutes from Ni-NTA resin in the presence of VP22trunc and it was concluded that this indicated interaction between these polypeptides. The ability of synthetic peptides to inhibit this interaction was analysed by mixing them individually with the partially purified VP16 extract prior to addition of VP22trunc. From the intensity of the 65 KDa species in the crude extract (FIG. 4, lane 2), it was estimated that the concentration of VP16 was approximately […]. To ensure that experiments were performed in an excess of peptide, peptides were prepared at a concentration of 2 mg/ml (about 1 mM) and equal volumes of peptide and extract were mixed. This gave a relative molar ratio of VP16 to peptide of 1:300. However, it should be noted that certain peptides were not completely soluble (Table 1) and in those cases, the ratio would be reduced.

[3] = molecular target: T2, VP16/full-length VP22 interaction (Human herpesvirus 1, UniProt P06492); experiment: Far Western analysis of peptides blocking VP16 binding to full-length VP22 (vUL49ep L-particle extract); set-up: species or system HSV-1; conditions: strips pre-incubated with 1 mg peptide, FIG. 8
T2 construct: Plasmid pETVP16 was used to express full-length VP16 under the control of the T7 RNA polymerase promoter; made in house; host or cells: VP16: E. coli BL21(DE3); VP22: L-particles of recombinant virus vUL49ep grown in BHK cells
T2 sequence (P06492 whole entry): as above
Protocol: FIG. 8 Blocking of the interaction between VP16 and full length VP22 by pure peptides D and E. A vUL49ep L-particle extract was run on a 10% polyacrylamide gel and the proteins transferred to a nitrocellulose membrane. The blot was cut into strips, with each strip containing the equivalent of approximately 3×10^9 L-particles. Strips were pre-incubated with 1 mg of each of the following peptides: lane 2, no peptide; lane 3, peptide C; lane 4, peptide D; lane 5, peptide E. 2 μg of pure VP16 was then added to each incubation and bound VP16 was detected by LP1 antibody. Two strips were incubated with either LPl (lane 1) or 9220 antibody (lane 6), each at a dilution of 1:1000. The apparent molecular weights of VP16 (65 KDa) and tagged VP22 (40 KDa) are shown.
Following electrophoresis, proteins were electrotransferred to either Hybond or ProBlott (Applied Biosystems) membrane and the membrane was incubated in renaturation buffer (50 mM Tris-HCl, pH 8.0, 150 mM NaCl, 10% glycerol, 1 mM DTT) at 4° C. for 5-6 hours.
For membranes probed with either VP16 or VP22trunc, blocking was performed overnight as described for Western blot analysis. Probing with epitope-tagged VP22 or VP16 was performed in 20 mM Tris-HCl, pH 8.0, 250 mM NaCl for 1.5 hours at ambient temperature. Excess probe was removed by washing 4 times (10 minutes per wash) in 20 mM Tris-HCl, pH8.0, 250 mM NaCl, followed by incubation with the appropriate antibody at a dilution of 1:1000 in TTBS/1% gelatin for 1.5-2 hours. Bound antibody was detected as described for Western blot analysis.
The results presented thus far have established that peptides D and E block the interaction between VP16 and VP22trunc. The inhibitory effect of the peptides was further tested to examine whether they were capable of blocking the interaction of VP16 with full-length VP22.

| Sequence | Solubility following purification [1] | Solubility [1] | Co-elution of VP16 with VP22trunc from Ni-NTA resin after incubation with peptide [2] | Inhibition of VP16 co-elution with VP22trunc, peptides purified to homogeneity [2] | Blocking of VP16 binding to full-length VP22 (Far Western) [3] |
| --- | --- | --- | --- | --- | --- |
| CAAVGRLAAMHARMAAVQLW [Peptide E] | not 100% soluble | partly; also recorded: partially insoluble | failed to co-elute | inhibitory capabilities were retained | completely blocks binding of VP16 to VP22 |
| FSTAPPNPDAPWTPRVAGFN [Peptide C] | – | soluble | – | – | does not hinder the interaction |
| TPRVAGFNKRVFCAAVGRLA [Peptide D] | not 100% soluble | partly; also recorded: partially insoluble | reduced amounts | inhibitory capabilities were retained | completely blocks binding of VP16 to VP22 |
